Measurements published in patent publication US20230077205A1.

Legend:
[1] = target: Protein A, MabSelect Sure (protein A affinity resin ligand); test: resin slurry partitioning on MabSelect Sure protein A resin; reference Ab6; Elute: 20 mM NaAcetate, pH 3.5
[2] = target: Protein A, MabSelect Sure (protein A affinity resin ligand); test: resin slurry partitioning on MabSelect Sure protein A resin; reference Ab6; Strip: 100 mM acetic acid
[3] = target: Protein A, MabSelect Sure (protein A affinity resin ligand); test: resin slurry partitioning on MabSelect Sure protein A resin; reference Ab6; Equil/wash: 10 mM NaPhosphate, pH 6.5
[4] = target: Protein A, MabSelect Sure (protein A affinity resin ligand); test: resin slurry partitioning on MabSelect Sure protein A resin; reference Ab6; High salt wash: 10 mM NaPhosphate, pH 6.5, 0.5M NaCl

| Substance | log α (log Kp PLBL2 - log Kp Ab6) [1] | log α (log Kp PLBL2 - log Kp Ab6) [2] | log α (log Kp PLBL2 - log Kp Ab6) [3] | log α (log Kp PLBL2 - log Kp Ab6) [4] |
| --- | --- | --- | --- | --- |
| PLBL2 | -0.3 | – | – | – |
| PLBL2 (enzyme) | – | 0 | -2 | -2 |
